Values quoted from earlier work, collected in PMC6842113.

Biological target: PSD-95 PDZ3-SH3-GK (Homo sapiens) (UniProt P78352)

Substance: SynGAP C-terminus (from UniProt Q9QUH6)
- Kd: 0.2 µM
